Data from article PMC12881670, “Investigation into ligand selectivity and bias at the formyl peptide receptor family” (The Journal of Pharmacology and Experimental Therapeutics, 2025).
Where no end group is shown, it is not given here. The star is where a group is joined. For = O=C*

T1: FLAG-Hs_FPR2 C-terminally fused to Renilla Luciferase 8 (human, UniProt P25090 1-351)
T1 sequence (looked up): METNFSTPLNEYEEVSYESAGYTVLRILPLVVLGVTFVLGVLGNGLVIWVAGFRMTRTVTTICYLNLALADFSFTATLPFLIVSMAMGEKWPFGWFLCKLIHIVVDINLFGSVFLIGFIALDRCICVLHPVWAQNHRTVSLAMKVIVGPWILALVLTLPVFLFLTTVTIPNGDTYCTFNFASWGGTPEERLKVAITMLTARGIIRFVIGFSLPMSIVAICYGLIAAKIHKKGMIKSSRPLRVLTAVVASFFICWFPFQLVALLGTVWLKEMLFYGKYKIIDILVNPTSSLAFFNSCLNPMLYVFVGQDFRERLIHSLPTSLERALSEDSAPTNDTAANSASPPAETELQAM

T2: FLAG-Mm_Fpr1 C-terminally fused to Renilla Luciferase 8 (mouse, UniProt P33766 1-364)
T2 sequence (looked up): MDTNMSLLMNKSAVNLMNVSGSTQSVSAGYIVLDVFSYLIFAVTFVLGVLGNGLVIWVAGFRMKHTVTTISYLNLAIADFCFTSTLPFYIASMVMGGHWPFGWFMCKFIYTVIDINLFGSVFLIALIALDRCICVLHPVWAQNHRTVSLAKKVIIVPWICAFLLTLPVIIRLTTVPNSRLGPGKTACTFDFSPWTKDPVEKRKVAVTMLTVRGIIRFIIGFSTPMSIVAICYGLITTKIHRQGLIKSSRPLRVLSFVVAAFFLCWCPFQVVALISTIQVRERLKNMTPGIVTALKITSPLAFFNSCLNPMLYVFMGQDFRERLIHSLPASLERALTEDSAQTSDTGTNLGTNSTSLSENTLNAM

T3: FLAG-Mm_Fpr2 C-terminally fused to Renilla Luciferase 8 (mouse, UniProt O88536 1-351)
T3 sequence (looked up): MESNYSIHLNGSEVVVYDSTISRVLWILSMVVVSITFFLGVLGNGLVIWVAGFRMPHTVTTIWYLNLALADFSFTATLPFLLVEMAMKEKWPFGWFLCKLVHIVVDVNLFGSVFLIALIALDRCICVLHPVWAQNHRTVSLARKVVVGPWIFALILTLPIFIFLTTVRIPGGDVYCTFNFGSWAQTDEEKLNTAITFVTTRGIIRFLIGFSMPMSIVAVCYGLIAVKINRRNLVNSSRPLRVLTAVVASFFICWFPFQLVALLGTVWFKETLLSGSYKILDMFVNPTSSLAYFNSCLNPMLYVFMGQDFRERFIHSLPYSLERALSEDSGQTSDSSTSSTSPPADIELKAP

T4: FLAG-tagged human FPR2 (Hs_FPR2) (human, UniProt P25090 1-351)
T4 sequence (looked up): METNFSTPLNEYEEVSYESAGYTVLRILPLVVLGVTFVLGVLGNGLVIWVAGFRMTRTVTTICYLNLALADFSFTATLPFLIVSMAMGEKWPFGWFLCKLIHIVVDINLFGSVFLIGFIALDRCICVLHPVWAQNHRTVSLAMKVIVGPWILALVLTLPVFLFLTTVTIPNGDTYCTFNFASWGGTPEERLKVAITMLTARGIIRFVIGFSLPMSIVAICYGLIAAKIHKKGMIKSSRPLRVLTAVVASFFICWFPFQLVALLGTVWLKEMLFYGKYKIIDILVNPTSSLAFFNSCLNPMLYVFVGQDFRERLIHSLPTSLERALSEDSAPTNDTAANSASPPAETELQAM

T5: FLAG-tagged mouse Fpr1 (Mm_Fpr1) (mouse, UniProt P33766 1-364)
T5 sequence (looked up): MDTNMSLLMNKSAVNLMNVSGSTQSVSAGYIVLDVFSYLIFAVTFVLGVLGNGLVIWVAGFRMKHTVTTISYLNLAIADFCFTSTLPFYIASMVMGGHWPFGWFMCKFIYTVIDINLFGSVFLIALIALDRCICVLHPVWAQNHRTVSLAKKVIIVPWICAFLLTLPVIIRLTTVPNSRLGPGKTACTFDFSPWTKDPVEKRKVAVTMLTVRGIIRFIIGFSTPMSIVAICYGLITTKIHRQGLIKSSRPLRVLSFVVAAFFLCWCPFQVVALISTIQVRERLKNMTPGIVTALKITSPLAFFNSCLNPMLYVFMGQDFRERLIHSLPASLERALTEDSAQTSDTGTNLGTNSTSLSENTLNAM

T6: FLAG-Hs_FPR1 C-terminally fused to Renilla Luciferase 8 (human, UniProt P21462 1-350)
T6 sequence (looked up): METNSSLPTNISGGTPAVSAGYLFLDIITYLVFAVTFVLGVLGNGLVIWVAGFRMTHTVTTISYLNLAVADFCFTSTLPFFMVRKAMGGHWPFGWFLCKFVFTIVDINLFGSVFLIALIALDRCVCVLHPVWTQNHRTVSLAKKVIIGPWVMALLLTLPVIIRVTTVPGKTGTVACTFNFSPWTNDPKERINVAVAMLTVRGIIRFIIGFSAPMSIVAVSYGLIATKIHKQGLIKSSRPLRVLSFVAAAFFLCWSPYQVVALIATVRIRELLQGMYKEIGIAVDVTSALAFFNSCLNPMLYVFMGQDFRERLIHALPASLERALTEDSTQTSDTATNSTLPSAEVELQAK


What was measured:
Assay in all cases: cell-based or functional assay
[1] = molecular target: T1, FLAG-Hs_FPR2 C-terminally fused to …
[2] = molecular target: T2, FLAG-Mm_Fpr1 C-terminally fused to …
[3] = molecular target: T3, FLAG-Mm_Fpr2 C-terminally fused to …
[4] = molecular target: T4, FLAG-tagged human FPR2 (Hs_FPR2)
[5] = molecular target: T1, FLAG-Hs_FPR2 C-terminally fused to …; remark: listed apart in the source
[6] = molecular target: T3, FLAG-Mm_Fpr2 C-terminally fused to …; remark: listed apart in the source
[7] = molecular target: T5, FLAG-tagged mouse Fpr1 (Mm_Fpr1)
[8] = molecular target: T4, FLAG-tagged human FPR2 (Hs_FPR2); remark: listed apart in the source
[9] = molecular target: T6, FLAG-Hs_FPR1 C-terminally fused to …
[10] = molecular target: T6, FLAG-Hs_FPR1 C-terminally fused to …; remark: listed apart in the source
[11] = molecular target: T2, FLAG-Mm_Fpr1 C-terminally fused to …; remark: listed apart in the source

| Binder | BRET of receptor-RLuc8 with Venus-mGsi: Emax (% of 1 μM WKYMVm) [1] [%] | BRET of receptor-RLuc8 with Venus-mGsi: Log EC50 (M) [1] [log M] | BRET of receptor-RLuc8 with Venus-mGsi: Emax (% of 1 μM WKYMVm) [2] [%] | BRET of receptor-RLuc8 with Venus-mGsi: Log EC50 (M) [2] [log M] | BRET of receptor-RLuc8 with Venus-mGsi: Emax (% of 1 μM WKYMVm) [3] [%] | BRET of receptor-RLuc8 with Venus-mGsi: Log EC50 (M) [3] [log M] | BRET of receptor-RLuc8 with Arrestin 3-YFP: Emax (% of 1 μM WKYMVm) [6] [%] | BRET of receptor-RLuc8 with Arrestin 3-YFP: Log EC50 (M) [6] [log M] | also measured |
| --- | --- | --- | --- | --- | --- | --- | --- | --- | --- |
| For-MTPMRKINPLMKLIN [MCT-2 (Formyl-MTPMRKINPLMKLIN from Cytochrome b)] | 44.4 | -6.23 | -8.19 | -7.78 | 25 | -4.77 | 12.1 | -10.3 | ERK1/2 phosphorylation (Western blot): Emax (% of 1 μM WKYMVm) [4]: 93.9%; ERK1/2 phosphorylation (Western blot): Log EC50 (M) [4]: -6.72 log M; BRET of receptor-RLuc8 with Arrestin 3-YFP: Emax (% of 1 μM WKYMVm) [5]: 51.8%; BRET of receptor-RLuc8 with Arrestin 3-YFP: Log EC50 (M) [5]: -6.06 log M; receptor internalization (flow cytometry): Emax (% of 1 μM WKYMVm) [7]: 7.39%; receptor internalization (flow cytometry): Log EC50 (M) [7]: -7.24 log M; receptor internalization (flow cytometry): Emax (% of 1 μM WKYMVm) [8]: 63.3%; receptor internalization (flow cytometry): Log EC50 (M) [8]: -6.87 log M |
| For-Met-Leu-Phe [fMet-Leu-Phe (fMLF)] | 61.7 | -4.05 | 59.3 | -4.93 | 13.2 | -4.58 | 22.7 | -4.71 | BRET of receptor-RLuc8 with Venus-mGsi: Emax (% of 1 μM WKYMVm) [9]: 115%; BRET of receptor-RLuc8 with Venus-mGsi: Log EC50 (M) [9]: -6.47 log M; BRET of receptor-RLuc8 with Arrestin 3-YFP: Emax (% of 1 μM WKYMVm) [10]: 97%; BRET of receptor-RLuc8 with Arrestin 3-YFP: Log EC50 (M) [10]: -7.08 log M; BRET of receptor-RLuc8 with Arrestin 3-YFP: Emax (% of 1 μM WKYMVm) [11]: 83.4%; BRET of receptor-RLuc8 with Arrestin 3-YFP: Log EC50 (M) [11]: -4.68 log M |
